In article PMC6110258 one finds stoichiometry N data, which are given here for one substance.

The target of assay [1] is H5-Strep-tag (Strep-tag II-fused haemagglutinin H5 ectodomain of A/duck/Viet Nam/TG24-01/2005 (H5N1) (influenza A virus A/duck/Viet Nam/TG24-01/2005 (H5N1) | not stated)). The experiment in a line: cross-linking.
The target is the same in assay [2]. The experiment in a line: SEC. (In general: SEC sorts molecules by how far they enter the pores of the column.)

Take “H5-Strep-tag (Strep-tag II-fused haemagglutinin H5 ectodomain of A/duck/Viet Nam/TG24-01/2005 (H5N1)”: the stoichiometry N in assay [1] and in assay [2] was 3 each time.
